Laboratory results published in patent US10584169B2, “Anti-CD73 antibodies and uses thereof” (I-MAB BIOPHARMA US LIMITED, dated 2020).
Where two headings read alike, the source gives them in different places.

B1: Hu101-25 (antibody, V domains shown)
VH: EVQLQESGPGLVKPSETLSLTCAVSGYSISSGYYWNWIRQPPGKGLEWIGYINYGGSNGYNPSLKSRVTISRDTSKNQFSLKLSSVTAADTAVYYCARDYDAYYEALDDWGQGTTVTVSS
VL: EIVLSQSPATLSLSPGERATLSCRASSRVNYMHWYQQKPGQSPRPWISATSNLASGVPARFSGSGSGTSYTLTISSLEPEDFAVYYCQQWSSNPPTFGGGTKVEIK
B2: Hu101-28 (antibody, V domains shown)
VH: EVQLQESGPGLVKPSETLSLTCAVSGYSITSGYYWNWIRQPPGKKLEWMGYINYGGSNGYNPSLKSRITISRDTSKNQFSLKLSSVTAADTAVYYCARDYDAYYEALDDWGQGTTVTVSS
VL: EIVLSQSPATLSLSPGERATLSCRASSRVNYMHWYQQKPGQSPRPWISATSNLASGVPARFSGSGSGTSYTLTISSLEPEDFAVYYCQQWSSNPPTFGGGTKVEIK
B3: 101-Mu (antibody, V domains shown)
VH: DVQLQESGPGLVKPSQSLSLTCSVTGYSITSGYYWNWIRQFPGNKLEWMGYINYGGSNGYNPSLKSRISITRDTSKNQFFLKLNSVTTEDTATYYCARDYDAYYEALDDWGQGTSVTVSS
VL: QIVLSQSPAILSASPGEKVTMTCRASSRVNYMHWYQQKPGSSPKPWISATSNLASGVPARFSGSGSGTSYSLTISRVETEDAATYYCQQWSSNPPTFGGGTKLEIK
B4: 101-Mu chimera (antibody, V domains shown)
VH: DVQLQESGPGLVKPSQSLSLTCSVTGYSITSGYYWNWIRQFPGNKLEWMGYINYGGSNGYNPSLKSRISITRDTSKNQFFLKLNSVTTEDTATYYCARDYDAYYEALDDWGQGTSVTVSS
VL: QIVLSQSPAILSASPGEKVTMTCRASSRVNYMHWYQQKPGSSPKPWISATSNLASGVPARFSGSGSGTSYSLTISRVETEDAATYYCQQWSSNPPTFGGGTKLEIK

Columns and labels:
[1] = target: T1, Human CD73 on the cell surface (human)
T1 chain: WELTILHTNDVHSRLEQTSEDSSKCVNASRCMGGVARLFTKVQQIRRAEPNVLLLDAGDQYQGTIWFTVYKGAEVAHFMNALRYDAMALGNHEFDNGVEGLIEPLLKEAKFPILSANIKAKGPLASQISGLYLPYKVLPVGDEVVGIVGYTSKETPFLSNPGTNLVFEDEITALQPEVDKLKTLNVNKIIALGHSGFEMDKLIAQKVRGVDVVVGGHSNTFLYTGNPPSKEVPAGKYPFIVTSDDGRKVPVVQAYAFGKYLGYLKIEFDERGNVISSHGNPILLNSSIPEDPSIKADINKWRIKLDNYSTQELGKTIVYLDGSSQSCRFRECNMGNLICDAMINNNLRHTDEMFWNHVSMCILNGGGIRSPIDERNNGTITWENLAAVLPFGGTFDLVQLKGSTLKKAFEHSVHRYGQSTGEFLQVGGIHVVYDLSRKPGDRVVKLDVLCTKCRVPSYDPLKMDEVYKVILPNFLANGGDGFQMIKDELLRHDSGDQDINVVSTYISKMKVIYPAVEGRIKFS

[2] = target: T1, Human CD73 on the cell surface; assay: flow cytometry on SK-OV-3 cells
Procedure: Human ovarian cancer cell line (SK-OV-3 cells) which endogenously expressed human CD73 on the surface were stained with different concentrations of IgG control, chimeric anti-CD73 (101-Mu-Chimeric, or 101-Chi) and humanized anti-CD73 antibodies (Hu101-25 and Hu101-28) at […] for 30 mins. Then, the cells were washed with PBS three times, followed by incubation with APC-labeled anti-human Fc specific antibody (Invitrogen) at 4° C. for 30 mins. Binding was measured using an FACSCanto (Becton-Dickinson), and the results are presented in FIG. 8 (see also the table below).

[3] = target: T2, Recombinant human CD73 protein (human); assay: Biacore T200, antibody captured by anti-human Fc IgG, antigen as analyte, 1:1 model
T2 chain: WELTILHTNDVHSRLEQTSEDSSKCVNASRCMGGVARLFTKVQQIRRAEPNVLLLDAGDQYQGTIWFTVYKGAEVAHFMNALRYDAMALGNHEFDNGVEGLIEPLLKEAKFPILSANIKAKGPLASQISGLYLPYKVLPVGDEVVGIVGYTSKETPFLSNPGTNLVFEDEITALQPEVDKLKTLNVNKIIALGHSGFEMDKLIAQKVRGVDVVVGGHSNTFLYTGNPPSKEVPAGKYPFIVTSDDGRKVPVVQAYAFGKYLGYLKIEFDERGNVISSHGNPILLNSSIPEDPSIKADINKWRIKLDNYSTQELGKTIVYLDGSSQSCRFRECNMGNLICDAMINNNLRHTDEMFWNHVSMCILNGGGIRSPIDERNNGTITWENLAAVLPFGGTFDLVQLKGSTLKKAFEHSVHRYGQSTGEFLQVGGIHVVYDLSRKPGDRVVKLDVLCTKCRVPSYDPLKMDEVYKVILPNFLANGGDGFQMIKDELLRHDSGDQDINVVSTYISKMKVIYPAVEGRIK
Procedure: For the binding assay, the Biacore T200 system was used through human antibody capture approach. The anti-human Fc IgG were immobilized on CM5 sensor chip according to the manufactory's instruction. The test antibody was injected and captured by the immobilized anti-human Fc IgG. And then serial concentrations of antigen was individually injected, and the binding profile was recorded for each concentration antigen analyte, respectively. The assay system was regenerated by injection of 10 mM Glycine-HCl pH 1.5 for 30 seconds. The running buffer was HBS-EP+ (10 mM HEPES, pH 7.4, 150 mM NaCl, 3 mM EDTA and 0.05% P20). The assay temperature was 25° C., and the association and dissociation time were 180 and 600 seconds, respectively.

[4] = target: T2, Recombinant human CD73 protein
[5] = target: T1, Human CD73 on the cell surface; assay: flow cytometry on SK-OV-3 cells
[6] = target: T2, Recombinant human CD73 protein
[7] = target: T1, Human CD73 on the cell surface
[8] = target: T2, Recombinant human CD73 protein; assay: ELISA with recombinant human CD73 (2 µg/ml)
[9] = target: T2, Recombinant human CD73 protein; assay: ELISA, plate-coated recombinant human CD73
[10] = target: T1, Human CD73 on the cell surface
[11] = target: T2, Recombinant human CD73 protein
[12] = target: T2, Recombinant human CD73 protein; assay: Biacore T200, antibody captured, recombinant human CD73 as analyte, 1:1 model
Procedure: FIG. 3 plots the binding kinetics of 101-Mu and mAb1 with recombinant human CD73 (recombinant human CD73 was set as an analyte with serial concentrations (100, 50, 25, 12.5, 6.25, 3.125 nM)). The binding kinetics assay of antibody to antigen was performed using Biacore T200 system through a human antibody capture approach. The […] were immobilized on CM5 sensor chip according to the manufactory's instruction. The test antibody was injected and captured by the immobilized anti-human Fc IgG. And then serial concentrations of the antigen was individually injected, and the binding profile was recorded for each concentration antigen analyte, respectively. The assay system was regenerated by injection of 10 mM Glycine-HCl pH 1.5 for 30 seconds. The running buffer was HBS-EP+ (10 mM HEPES, pH 7.4, 150 mM NaCl, 3 mM EDTA and 0.05% P20). The assay temperature was 25° C., and the association and dissociation time were 180 and 600 seconds, respectively.

| Binder | IC50 (nM), inhibition of cellular CD73 enzyme activity on SK-OV-3 cells [1] | Max. Inhibition (%), cellular CD73 enzyme activity on SK-OV-3 cells [1] | EC50 [2] | Kd [3] | koff [3] | kon [3] | IC50 (nM), inhibition of recombinant human CD73 enzymatic activity [4] | Max. Inhibition (%), recombinant human CD73 enzymatic activity [4] | EC50 [5] | IC50 of inhibition of recombinant human CD73 activity (CellTiter-Glo) [6] | IC50 of inhibition of cell-bound CD73 activity on MDA-MB-231 cells (CellTiter-Glo) [7] | IC50 of inhibition of cell-bound CD73 activity on SK-OV-3 cells (CellTiter-Glo) [7] | EC50 [8] | EC50 [9] | IC50 of inhibition of cellular CD73 enzyme activity on SK-OV-3 cells (CellTiter-Glo luminescence) [10] | IC50 of inhibition of CD73 enzymatic activity (CellTiter-Glo luminescence, residual CD73 activity) [11] | Kd [12] | koff [12] | kon [12] |
| --- | --- | --- | --- | --- | --- | --- | --- | --- | --- | --- | --- | --- | --- | --- | --- | --- | --- | --- | --- |
| B1 | 2.98 nM | 100% | 2.38 nM | 0.747 nM | 5.51e-05 s⁻¹ | 73700 M⁻¹ s⁻¹ | 4.72 nM | 99% |  |  |  |  |  |  |  |  |  |  |  |
| B2 | 2.52 nM | 100% | 1.35 nM |  |  |  | 9.35 nM | 98% | 0.67 nM | 2.84 nM | 8.21 nM | 2.52 nM | 0.0887 nM |  |  |  |  |  |  |
| B3 |  |  |  |  |  |  |  |  | 0.54 nM |  |  |  |  | 0.08 nM | 4.62 nM | 3.89 nM | 0.421 nM | 3.42e-05 s⁻¹ | 81300 M⁻¹ s⁻¹ |
| B4 | 1.82 nM | 100% | 1.35 nM |  |  |  | 4.25 nM | 98% |  |  |  |  |  |  |  |  |  |  |  |
